# B1: HAdV-5 penton base protein, recombinant, soluble (natural protein)
# chain: MRRAAMYEEGPPPSYESVVSAAPVAAALGSPFDAPLDPPFVPPRYLRPTGGRNSIRYSELAPLFDTTRVYLVDNKSTDVASLNYQNDHSNFLTTVIQNNDYSPGEASTQTINLDDRSHWGGDLKTILHTNMPNVNEFMFTNKFKARVMVSRLPTKDNQVELKYEWVEFTLPEGNYSETMTIDLMNNAIVEHYLKVGRQNGVLESDIGVKFDTRNFRLGFDPVTGLVMPGVYTNEAFHPDIILLPGCGVDFTHSRLSNLLGIRKRQPFQEGFRITYDDLEGGNIPALLDVDAYQASLKDDTEQGGGGAGGSNSSGSGAEENSNAAAAAMQPVEDMNDHAIRGDTFATRAEEKRAEAEAAAEAAAPAAQPEVEKPQKKPVIKPLTEDSKKRSYNLISNDSTFTQYRSWYLAYNYGDPQTGIRSWTLLCTPDVTCGSEQVYWSLPDMMQDPVTFRSTRQISNFPVVGAELLPVHSKSFYNDQAVYSQLIRQFTSLTHVFNRFPENQILARPPAPTITTVSENVPALTDHGTLPLRNSIGGVQRVTITDARRRTCPYVYKALGIVSPRVLSSRTF
# notes: also called 5PB; source: Sf9 (baculovirus, pFastBac HT A), purified (Ni-NTA agarose, HiTrap Q-sepharose)
# Biological target: the molecule itself
# Assay: negative-stain electron microscopy
protein,measurement,value
B1,stoichiometry N,5
